# Laboratory results from EP1605964B1 (GEORG-SPEYER-HAUS CHEMOTHERAPEUTISCHES FORSCHUNGSINSTITUT, dated 2004).
# B1: peptide aptamer KDI1 (SEQ ID NO:1), displayed in E. coli thioredoxin A (TrxA) (designed binder, not shown: large carriers)
# chain: MSDKIIHLTDDSFDTDVLKADGAILVDFWAEWCGVFGVSWVVGFWCQMHRRLVCPCKMIAPILDEIADEYQGKLTVAKLNIDQNPGTAPKYGIRGIPTLLLFKNGEVAATKVGALSKGQLKEFLDANLA
# notes: The construct used in the GST pulldown is not described
# B2: peptide aptamer KDI4 (SEQ ID NO:3), displayed in E. coli thioredoxin A (TrxA) (designed binder, not shown: large carriers)
# chain: MSDKIIHLTDDSFDTDVLKADGAILVDFWAEWCGLSFQLSPLSLVHRWGTTVDVPCKMIAPILDEIADEYQGKLTVAKLNIDQNPGTAPKYGIRGIPTLLLFKNGEVAATKVGALSKGQLKEFLDANLA
# notes: Built as the yeast two-hybrid prey; The construct used in the GST pulldown is not described
# B3: peptide aptamer KDI3 (SEQ ID NO:2), displayed in E. coli thioredoxin A (TrxA) (designed binder, not shown: large carriers)
# chain: MSDKIIHLTDDSFDTDVLKADGAILVDFWAEWCGTFSPVVLLYRLFLATVLIWAPCKMIAPILDEIADEYQGKLTVAKLNIDQNPGTAPKYGIRGIPTLLLFKNGEVAATKVGALSKGQLKEFLDANLA
# notes: as for B2
# Target: T1, Gal4 DNA binding domain alone (UniProt P04386 1-147)
# T1 construct: Negative control bait in the yeast two-hybrid retransformation
# Assay: yeast two-hybrid, retransformation of rescued plasmids
# T1 sequence (P04386 1-147 limits assumed): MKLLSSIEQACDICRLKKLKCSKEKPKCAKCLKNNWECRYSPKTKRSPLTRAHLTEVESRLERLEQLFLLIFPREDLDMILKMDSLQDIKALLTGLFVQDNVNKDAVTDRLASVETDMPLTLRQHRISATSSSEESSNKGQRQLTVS
row,Binder,binding result
1,B1,no binding
2,B2,no binding
3,B3,no binding
